The supplement of paper PMC9170038

Tested on: MS2 coat protein
Test: apparent KD of MS2 coat protein; designed switch direction (-1 OFF switch, 1 ON switch): 1; higher = weaker reporter binding
Procedure, shortened: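 The buffer was Tris-HCl pH 7.5 with KCl, MgCl2, BSA, DTT, tRNA and Tween-20. In it, SNAP-549-labelled MS2 coat protein was titrated in doubling steps from 0.7 or 1.5 nM to 3 µM over chip-bound RNA switches transcribed by stalled E. coli RNA polymerase on Illumina chips. Apparent KD is the per-design median over clusters of curve fits to normalised fluorescence.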

[1] = input ligand: microRNA oligo, concentration not stated
[2] = Eterna round: R95, input ligand: FMN 200 uM
[3] = Eterna round: R95, input ligand: microRNA oligo, concentration not stated
[4] = Eterna round: R95, input ligand: none

Sequence	apparent KD of MS2 coat protein (input ligand: FMN 200 uM) [nM]	apparent KD of MS2 coat protein [1] [nM]	apparent KD of MS2 coat protein (input ligand: none) [nM]	apparent KD of MS2 coat protein [2] [nM]	apparent KD of MS2 coat protein [3] [nM]	apparent KD of MS2 coat protein [4] [nM]
GCCAUCGCAUGAGGAUAUGGCACCGUUUCGGUGCCAGAAGGCAUGUCGAAUGACAUGAGGAUCACCCAUGUAGUAUAGAUGGCA [JL Fiskers NG1ss - 33 mod 10] (Eterna round: R96, puzzle: Same State NG 1)	59	377	851			
UGUCCAGCCUGAGCUGGACAAAAGCAUGUACAUGAGGAUCACCCAUGUUCAUGUACAAGCUUUUUGCUCGUCUUAGU [salish99_208a_r3_065] (puzzle: Sensor for hsa-mir-208a)				489	13.8	619
UUACUCAUGUAAGGAUAUGCAGCCGAAACGGCUGCAGAAGGUACUAUAAUACAUGAGGAUCACCCAUGUCUUUUUAAUUUUUAC [Mat - Same State NG 1 - JL mod - D70] (Eterna round: R96, puzzle: Same State NG 1)	47.5	37	44.1			
AGUAUUAAUGCAGGAUAUGAUUAACAUGAGGAUCACCCAUGUGGUGUUGUGAGUAAGGAGAGUGAUCAGAAGGGCAUUUUUUUU [JMF's solution 38] (Eterna round: R96, puzzle: Same State NG 2)	414	175	502			
AGUCCAGCCUAAGCUGGACAAAAGCAUGUACAUGAGGAUCACCCAUGUUCAUGUACAAGCUUUUUGCUCGUCAAAAG [Mat - hsa-mir-208a - Mod of JL - 68] (puzzle: Sensor for hsa-mir-208a)				194	19.6	242
UAAUAAAAGGAUAUACAUGAGGAUCACCCAUGUCCGUCUGCCAAGGAUAUCUAGGAUCAAGCAGCAGAGAAGGUGGCACGCCAC [Eternabot solution 35] (Eterna round: R96, puzzle: Same State NG 3)	22.3	17.2	18.3			
CAGCGCUGUCGAGAGGAUAUGCGGUGAUAGACAUGAGGAUCACCCAUGUUAGCGAUAGCAUUACGGUAGAAGGCUCUACAGCUGC [Soteed - 12] (puzzle: Same State 2)				29	73.3	103
UGGCUCAGACGAGGAUAUAUGUGGUCACAUGAGGAUCACCCAUGUCUCGAGCUUCGGCUCGAGGCAUAGAAGGCGUCUGAGCCU [SSNG2/5-A3] (Eterna round: R96, puzzle: Same State NG 2)	200	7.4	148			
AAGCUCGUGUGAGGAUAUGCCGCCGUUUCGGCUGCAGAAGGUGCUACGUUACAUGAGGAUCACCCAUGUCUCUGUUGUUUCGUG [salish99_SSNG1_r04_953] (Eterna round: R96, puzzle: Same State NG 1)		18.5				
ACUAAAACUGCAGGAUAUGUCCGGAACUCCGUUACAGAAGGGCAACGCACUGUUGAGGGCACGACAUGAGGAUCACCCAUGUAG [Eternabot solution 46] (Eterna round: R96, puzzle: Same State NG 1)	20.9	22.5	26.8			
ACCCGCGACGGAGGAUAUGGGCACUCGGCGAAAUAAACCGCCAUAACAUGAGGAUCACCCAUGUCCCAGAAGGCCGCCGCAAAC [Leatve] (Eterna round: R96, puzzle: Same State NG 2)	92.3	255	505			
AGUCCAGCAAGAGCUGGACAAAAGCAUGUACAUGAGGAUCACCCAUGUUCAUGUACAAGCUUUUUGCUCGUCAAAAG [Mat - hsa-mir-208a - Mod of JL - 72] (puzzle: Sensor for hsa-mir-208a)				216	19.9	318
GGUAAGAAUUAAGGAUAUUGAAUACAUAUGUUUAACAUGAGGAUCACCCAUGUGGGUUGCGGUGUCGAGAAGGUAAAUUAAUAG [Mat - same State NG 2 - JL mod - D100] (Eterna round: R96, puzzle: Same State NG 2)	262	166	305			
UGUUGUAUUACAGGAUAUCUAGUAUUUUUAUUAAGAGAAGGGUAUUCACAUGAGGAUCACCCAUGUAUAUACGAGGAAGUUGUG [JMF's solution 54] (Eterna round: R96, puzzle: Same State NG 1)		33.7				
AGAUCAUGACGAGGAUAUGGUACAUGAGGAUCACCCAUGUAUGUACUAUAAUCCGAAUGAGGAAUCCAGAAGGCGUCGUGGUCA [JL SSNG2 1.14] (Eterna round: R96, puzzle: Same State NG 2)	44.9	94.1	145			
AUUGCUUACGCAGGAUAUGAUGUGGAAACUGCGUCAGAAGGGUGAACAGUAUCGUUGCAAGAGGACAUGAGGAUCACCCAUGUC [SameState NG1 #98] (Eterna round: R96, puzzle: Same State NG 1)	27.9	20.6	31.4			

Sequence	apparent KD of MS2 coat protein (input ligand: FMN 200 uM) [nM]	apparent KD of MS2 coat protein [1] [nM]	apparent KD of MS2 coat protein (input ligand: none) [nM]	apparent KD of MS2 coat protein [2] [nM]	apparent KD of MS2 coat protein [3] [nM]	apparent KD of MS2 coat protein [4] [nM]
GCUCGAUGAGAGUCCUACAUGAGGAUCACCCAUGUAUGUGGGCAGGAUAUCUACAUGCAGAAUGUAGAGAAGGGCCCGUCGAGC [SameState NG3 #57] (Eterna round: R96, puzzle: Same State NG 3)	35.2	106	187			
AAAAUACAUGAGGAUCACCCAUGUCUAAAGAACGGAGGAUAUAGGCGUACAAAACACGCACUAGAAGGCUGGGUGC [Tesoonge] (puzzle: Same State 1)				151	116	155
AACAAUCUAUCUGAGGAUAUCAUGAAAAAAACAUGAGGAUCACCCAUGUGCAGGAAAACUGCAUAUGAGAAGGCAGAUAGAUUGU [salish99_SS2_r3_002] (puzzle: Same State 2)				28.9	621	769
GUAGCAUACCGAGGAUAUUCAUAUUACAUGAGGAUCACCCAUGUUAAAGAUAGGCGAAAGCCUUGGGAGAAGGCGGAAUGCUAC [Xeonanis - 20 Mod68] (Eterna round: R96, puzzle: Same State NG 2)	8.61	10.7	11.3			
GUGGUCAGACAUGAGGAUCACCCAUGUGGAAUAAAUAACACACAGGAUAUGGAAUAUAAAAUAUACCAGAAGGGUGGAUUGGUG (Eterna round: R96, puzzle: Same State NG 3)	157	226	326			
UGCUAGUGGGUAGGAUAUUUAGGAUAUGGGAAAGACUAAGUCUGUAGGUCACCUAACCCAGAAGGAGAGAAGGACCCUUCAGCU [pwkr ssNG2 2FMN + F9.28] (Eterna round: R96, puzzle: Same State NG 2)	1660	13.9	38.9			
UGGCUGGUGCUAGGAUAUGCAUGAGGCAUCCUCGUAGAAGGAGCACGACAUGAGGAUCACCCAUGUAGCCGUCCGUAGACGGCU [salish99_SSNG1_r04_010] (Eterna round: R96, puzzle: Same State NG 1)	673	348	1060			
UCUAGACAUGAGGAUCACCCAUGUCGAUAUGGCGCAGGAUAUCGGUACUCAUAGAGUACGCGAGAAGGGUGACUUC [Same State 1 - Mod of Vinnie Gere v.2] (puzzle: Same State 1)					173	
GACAAUCUAUCUGAGGAUAUCAUGAAUAAAACAUGAGGAUCACCCAUGUGCAGGAUAACUGCAAAUGAGAAGGCAGAUAGAUUGU [Mat - Same State 2 - Mod - D7] (puzzle: Same State 2)				12.3	24	27.7
GAGUAGGAGUUACAGGAUAUAUGGAGGUGGACAUGAGGAUCACCCAUGUGAGAGAUGAGAGGAGGAUAGAAGGGUAAGGGAGUAA [JR_SS2_Sub029] (puzzle: Same State 2)				189	153	486
AUUAAACAUGAGGAUCACCCAUGUCAACAAAGUCGAGGAUAUGGGCAAAUAAAAUAAGAACCAGAAGGCGAAUAUU [salish99_ss1_r3_080] (puzzle: Same State 1)				38.5	407	180
UGGUACAUGGGAGGAUAUCUCAUGGUGACAUGAGGAUCACCCAUGUAGUUGGUGCCGAAAGGCUGAGAGAAGGCCCAUGUACCU [JL SSNG1 3.76] (Eterna round: R96, puzzle: Same State NG 2)	62.9	59.3	99.9			
UUUAUAUUCAGAGGAUAUUAAAGUAGUAUAACAUAAGAAGGCUGUUUGUUUUGUAAAGUAAUUCUACAUGAGGAUCACCCAUGU [JR_SSNG1_Sub085] (Eterna round: R96, puzzle: Same State NG 1)		15.8				
AAAACACAUGAGGAUCACCCAUGUACCAGGUACAUAGGAUAUCCAGGCGCCAGAUGGCGCGGAGAAGGAUGGAAAA [Xeveoned] (puzzle: Same State 1)				90.8	162	251
GCUCGACGUAUGGCCUACAUGAGGAUCACCCAUGUGACUGGGCAGGAUAUCUAAAUGCAGAAUGUAGAGAAGGGCCCGUCGAGC [SameState NG3 #49] (Eterna round: R96, puzzle: Same State NG 3)	163	99.6	188			
